Changes are numbered by the printed parent chain.
T1: hMuSK delta 1 (Ig2-3 Fz) (human, UniProt O15146)
T1 construct: truncated extracellular domain, captured by anti-FLAG
T1 sequence (truncated extracellular domain, looked up): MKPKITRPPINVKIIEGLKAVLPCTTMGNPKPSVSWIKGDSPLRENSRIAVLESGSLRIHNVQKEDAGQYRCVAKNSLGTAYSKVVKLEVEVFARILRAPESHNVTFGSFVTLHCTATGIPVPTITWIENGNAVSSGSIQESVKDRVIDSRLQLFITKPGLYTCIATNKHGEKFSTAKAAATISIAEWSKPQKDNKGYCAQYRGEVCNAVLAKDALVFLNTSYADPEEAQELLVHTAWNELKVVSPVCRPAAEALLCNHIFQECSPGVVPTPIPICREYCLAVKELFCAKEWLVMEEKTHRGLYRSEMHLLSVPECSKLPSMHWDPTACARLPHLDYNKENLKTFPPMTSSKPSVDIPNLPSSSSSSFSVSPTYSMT

T2: human monomeric MuSK FLAG streptavidin (in house produced, batch 27-6-2019) (human, UniProt O15146 24-495)
T2 construct: also called full length MuSK; not shown: FLAG and streptavidin tags
T2 sequence: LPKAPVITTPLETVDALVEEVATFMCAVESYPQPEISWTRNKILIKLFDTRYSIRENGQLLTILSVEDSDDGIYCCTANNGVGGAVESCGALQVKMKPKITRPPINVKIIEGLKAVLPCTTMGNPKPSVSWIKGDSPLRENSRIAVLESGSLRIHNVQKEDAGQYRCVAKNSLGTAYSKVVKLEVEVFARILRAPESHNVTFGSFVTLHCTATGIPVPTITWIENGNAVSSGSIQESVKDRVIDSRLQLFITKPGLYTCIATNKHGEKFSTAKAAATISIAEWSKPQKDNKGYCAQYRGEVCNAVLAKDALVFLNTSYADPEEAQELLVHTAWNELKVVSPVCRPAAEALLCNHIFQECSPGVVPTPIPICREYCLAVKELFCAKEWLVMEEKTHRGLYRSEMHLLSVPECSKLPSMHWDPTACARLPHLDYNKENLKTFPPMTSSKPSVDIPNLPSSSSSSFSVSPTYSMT

T3: Human MuSK (R&D Systems, cat. 10189-MK, histidine tag) (human, UniProt O15146 24-495)
T3 construct: Bought protein; also called human monomeric MuSK-6xhis; not shown: histidine tag (6xhis)
T3 sequence: T2 sequence

B1: 3D10a (antibody, human IgG1, kappa, L234A L235A, V domains shown)
VH: EVQLVESGGGLVKPGGSLRLSCAASGFTFSASTMAWVRQAPGKGLEWVSSVSGDSHHIYYADSLKGRFTISRDNAKNSLYLQMNSLRAEDTAVYYCARERLLRLGVGFDSWGQGTLVTVSS
VL: DIQMTQSPSSLSASVGDRVTITCRASQRISGFVNWYQQKPGKAPKLLIYAASTLQSGVPSRFSGSGSGTDFTLTISSLQPEDFATYYCQQSYSPLYTFGQGTKLEIKR
B2: 3D9b (antibody, human IgG1, kappa, L234A L235A, V domains shown)
VH: EVQLVESGGGLVKPGGSLRLSCAASGFTFSTYTMHWVRQAPGKGLEWVSSISSRSAYKYYADSVKGRFTISRDNAKNSLYLQMNSLRAEDTAVYYCARDFFQLGPPRFDSWGQGTLVTVSS
VL: B1 VL with G31S, V33L, A50G, T53N, L95S
B3: 3F6c (antibody, human IgG1, kappa, L234A L235A, V domains shown)
VH: EVQLVESGGGLVKPGGSLRLSCAASGFTFSSYTMDWVRQAPGKGLEWVSSIGSNGDYIYYADSVRGRFTISRDNAKNSLYLQMNSLRAEDTAVYYCARGQLAVAGTHFDYWGQGTLVTVSS
VL: B1 VL with R28K, I29V, S30N, G31K, F32Y, Y96S
B4: 4D3 (antibody, human IgG1, kappa, L234A L235A, V domains shown)
VH: B1 VH with A31S, S32Y, A35T, V51I, G53S, D54G, S55G, H57Y, A61T, S110F
VL: B1 VL with R28S, F32Y, V33L, P94A

The binders below were run against T1, hMuSK delta 1 (Ig2-3 Fz) (assay: ELISA, hMuSK delta 1 (Ig2-3 Fz) captured on anti-FLAG coat, antibody titrated, anti-human Fc HRP detection, OD450).
Description: For binding to MuSK domains—An ELISA plate was coated with 0.5 μg/ml of anti-FLAG (M2 clone, Sigma Cat. F3165) and incubated overnight at 4° C. Next, the plate was washed with PBS and blocked with 1×PBS 1% casein for two hours at RT. After washing the plate, human monomeric MuSK FLAG streptavidin (batch 27-6-2019) and truncated MuSK variants (batch 3-9-2019) at 1 μg/ml in PBS where incubated for one hour at RT. After washing the plate, antibodies were diluted in blocking buffer and added to the plate. After a one hour incubation at RT, the plate was washed. Next, detecting antibody was added and incubated for one hour at RT (anti-human Fc HRP (1/5000) (clone 5A9, cat. No. Ab7499, ABCAM)) in blocking buffer. Lastly, the plate was washed with PBS and TMB was added and the reaction was stopped with 0.5 M H2SO4. OD 450 nm was determined by the Tecan Sunrise ELISA plate reader.
For the MuSK domain binding ELISA, binding of anti-MuSK antibodies to FLAG captured human monomeric MuSK and truncated variants was tested (FIG. 6). 3D9b, 3F6c, 3D10a, 4D3 and 3B5 bound only to full length MuSK, no binding was observed against the truncated MuSK variants. Therefore, we conclude that our antibodies bind to the Ig1 domain.

Binder	binding result
B1	no binding (tested: log(conc) 4.2 (about 16000 ng/ml))
B2	no binding (tested: log(conc) 4.2 (about 16000 ng/ml))
B3	no binding (tested: log(conc) 4.2 (about 16000 ng/ml))
B4	no binding (tested: log(conc) 4.2 (about 16000 ng/ml))

The binders below were run against T2, human monomeric MuSK FLAG streptavidin … (assay: epitope binning ELISA (coated anti-MuSK Fab, MuSK, IgG, anti-Fc HRP); competitor: 4D3).
Description: (§1) For epitope binning—An ELISA plate was coated at 1 μg/ml of the anti-MuSK Fabs and incubated overnight at 4° C. Next, the plate was wash with PBS followed by blocking with 1% casein in PBS for one hour. After washing the plate, 1 μg/ml of human monomeric MuSK (in house produced, batch 27-6-2019) was incubated for one hour at RT. The plate was washed and anti-MuSK antibodies at 0.3-10 μg/ml were added to the plate and incubated for one hour at RT. After washing the plate, detection antibody (goat anti-human Fc HRP (Jackson Immunoresearch cat. 109-035-098)) was added at 5000 fold dilution in PBS 0.1% casein. The plate was incubated for one hour at RT and washed with PBS-T. TMB was added and the reaction was stopped by adding H2504. […]
(§2) For the epitope binning ELISA, a plate was coated with anti-MuSK Fab and human monomeric MuSK was added after blocking the plate. Next the different antibodies were added and allowed to bind.

Binder	OD 450 nm [OD]
B1	0.062
B2	0.086
B3	0.076
B4	0.023

Each binder was assayed against T2, human monomeric MuSK FLAG streptavidin … (assay: epitope binning ELISA (coated anti-MuSK Fab, MuSK, IgG, anti-Fc HRP); competitor: 3D9b).
Description: as §1, §2

Binder	OD 450 nm [OD]
B1	0.115
B2	0.15
B3	0.133
B4	0.061

The binders below were run against T3, Human MuSK (R&D Systems, cat. 10189-MK, …) (assay: SPR (Biacore), MuSK-coated chip, antibody alone (run of first antibody 3D10a)).
Description: A chip was coated with ˜5000 RU of human MuSK (Lot nr DHUCO 11908A, batch nr 1089_MK). In a first experiment the saturating concentration of the pre-leads was determined. This is the concentration where the amplitude of a specific pre-lead doesn't increase anymore when additional pre-lead is injected on the immobilized MuSK.

Binder	amplitude of prelead without presaturating MuSK (RU)
B1	3130
B2	2110
B3	2510
B4	2620

These binders were tested against T3, Human MuSK (R&D Systems, cat. 10189-MK, …) (assay: SPR (Biacore), antibody captured on anti-hFc chip; average of 0.3125-10 nM; dissociation pH 7.4).
Excerpt: (§3) In order to study pH dependent binding of our antibodies to MuSK, the Biacore was used with the same setup as described in the paragraph entitled “Binding affinity for mouse, human and rhesus monkey recombinant MuSK in Biacore”. 6. […] For the other antibodies there is no real difference observed between pH 7.4 and 5.5.

Binder	koff [s⁻¹]
B1	0.00016
B2	0.00012
B3	8e-05
B4	0.00014

What follows are binders tested against T3, Human MuSK (R&D Systems, cat. 10189-MK, …) (assay: SPR (Biacore), pH 7.4 (summary table, repeats the average of Table 16); pH 7.4).
Excerpt: as §3

Binder	koff [s⁻¹]
B1	0.00016

— US20230110188A1 (ARGENX IIP, published 2023)
